{"source": "patent US20240299596A1", "about": "“METHODS AND MATERIALS FOR COMBINING BIOLOGICS WITH MULTIPLE CHELATORS” (priority 2021, published 2024)", "key": {"[1]": {"experiment": "in vitro", "type": "in vitro ADME, mouse", "description": "The stability of the ^64Cu-Conjugate 2 was tested in mouse serum and human serum at 37° C. using the Rad-iTLC method. Approximately 1.0 mL of mouse serum was extracted from blood of the mice and ˜1.0 mL of human serum was extracted from blood obtained from the Mayo Clinic's blood bank to measure the stability of radiolabeled ^64Cu-Conjugate 2. Obtained mouse and human serums were distributed separately in 100 μL aliquots in 1.5 mL microcentrifuge tubes (n=3). To which, 20 μL of ^64Cu-Conjugate2 was added in each 100 μL serum aliquot and mixed thoroughly. From this mixture, a small amount of reaction mixture was taken out using glass capillary tube and immediately spotted on an iTLC plate for analysis as T=0 timepoint (n=3). The rest of the reaction mixtures were incubated at 37° C. for up to 2 hours and small fractions were taken out at 1 hour and 2 hours post incubation to analyze the stability of ^64Cu-Conjugate 2 over time using radioactive thin layer chromatography (r-TLC). To do r-TLC analysis, iTLC (silica gel coated on paper, Agilent Technologies Inc., Santa Clara, CA) was used as a solid phase and 0.1M sodium citrate as a mobile phase. In this r-TLC condition, unconjugated (free)^64Cu moves to the solvent front of the r-TLC and radiolabeled ^64Cu-Conjugate 2 stays at the origin of the r-TLC plate. Based on the relative % of radioactivity at origin and at the solvent front, the % of intact ^64Cu-Conjugate2 and free ^64Cu was measured as presented in Tables 35 and 36."}, "[2]": {"experiment": "Stability of ^64Cu-Conjugate 2 over time by HPLC", "type": "physicochemical", "description": "The method used a Schmadzu HPLC system, which was equipped with dual UV and radioactivity detectors. […] Conjugate 2 was tested with varying concentrations (Table 18A below). […] For analysis, the compound was dissolved in water and a calibration curve was prepared to estimate the specific activity of the synthesized compound. Depending upon the chemical nature of the compound a different retention time was observed.\nThe stability of the ^64Cu-Conjugate 2 was tested using the same HPLC method as the Conjugate 2 at various time points. The time points included: 40 minutes (Tables 23-24 and FIG. 22), 2 hours (Tables 25-26 and FIG. 23), 4 hours (Tables 27-28 and FIG. 24), and 8 hours (Tables 29-30 and FIG. 25)."}, "[3]": {"experiment": "Micro PET imaging and ex-vivo biodistribution (SUV) in normal nude mice", "design": "species or system normal nude mice (strain: 002019, NU/J)", "settings": "mouse", "text": "in accordance with Loening AM and Gambhir SS. […] Mol Imaging 2003; 2:131-7."}, "[4]": {"experiment": "Stability of ^64Cu-Conjugate 2 over time by TLC", "type": "physicochemical", "settings": "silica gel, 0.1M sodium citrate", "description": "The Conjugate-1 was radiolabeled with Cu-64 using [^64Cu]CuCl2 produced from cyclotron and formulated in 0.1M hydrochloric acid. Different amounts (50 μg, 100 μg) of Conjugate-1 were used and the pH was adjusted to 5.0 using 0.1M sodium acetate after addition of [^64Cu]CuCl2. The resultant reaction mixture was stirred at room temperature for different durations as 10 minutes, 20 minutes, 30 minutes, and 40 minutes to optimize radiolabeling yield with reaction time. The progress and yield of the reactions were monitored by radioactive thin layer chromatography (r-TLC) using iTLC (silica gel coated on paper, Agilent Technologies Inc., Santa Clara, CA) and 0.1M sodium citrate as a mobile phase. In this r-TLC condition, unconjugated (Free)^64Cu moves to the solvent front of the r-TLC and radiolabeled ^64Cu-Conjugate-1 stays at the origin of the r-TLC plate. Based on our tested radiolabeling condition, the reaction achieved >99% yield radiolabeling in 10 minutes and at all other time points at pH 5.0 using sodium acetate as a reaction buffer via stirring at room temperature. Formation of radiolabeled ^64Cu-Conjugate-1 was also confirmed by radio HPLC.\nThe TLC was performed with a silica gel solid phase and 0.1M sodium citrate mobile phase.\nThe stability of the ^64Cu-Conjugate 2 was also analyzed by TLC using the same TLC method as the ^64Cu-Conjugate 1 at various time points. The time points included: 40 minutes (Table 31 and FIG. 26), 2 hours (Table 32 and FIG. 27), 4 hours (Table 33 and FIG. 28), 8 hours (Table 34 and FIG. 29)."}}, "data": [{"smiles": "NC(=O)CN1CCN(CC(N)=O)CCN(CC(N)=O)C(Cc2ccc(NC(=S)NCCN(CCNC(=S)Nc3ccc(CC4CN(CC(=O)O)CCN(CC(=O)O)CCN4CC(=O)O)cc3)C(=O)Cc3ccc(NC(=S)NCCCC[C@H](NC(=O)N[C@@H](CCC(=O)O)C(=O)O)C(=O)O)cc3)cc2)CN(CC(N)=O)CC1", "note": "(some centres unmarked) [^64Cu-Conjugate 2, metal not drawn]", "values": [{"measurement": "Intact (%), Average", "setting": "[1]", "result": 98.26, "unit": "%"}, {"measurement": "Stability in mouse serum (in words)", "setting": "[1]", "result": "stable up to 2 hours in mouse serum"}, {"measurement": "remaining at 1 h", "setting": "[1]; mouse, serum", "result": 96.8, "unit": "%"}, {"measurement": "remaining at 2 h", "setting": "[1]; mouse, serum", "result": 97.6, "unit": "%"}, {"measurement": "% Conc. of main HPLC peak", "setting": "[2]; 40 minutes, Table 23 trace, peak at Ret. Time 9.335", "result": 99.894, "unit": "%"}, {"measurement": "% Conc. of main HPLC peak", "setting": "[2]; 40 minutes, Table 24 trace, peak at Ret. Time 8.609", "result": 98.297, "unit": "%"}, {"measurement": "% Conc. of main HPLC peak", "setting": "[2]; 2 hours, Table 25 trace, peak at Ret. Time 9.298", "result": 99.770, "unit": "%"}, {"measurement": "% Conc. of main HPLC peak", "setting": "[2]; 2 hours, Table 26 trace, peak at Ret. Time 8.572", "result": 98.718, "unit": "%"}, {"measurement": "% Conc. of main HPLC peak", "setting": "[2]; 4 hours, Table 27 trace, peak at Ret. Time 9.286", "result": 99.463, "unit": "%"}, {"measurement": "% Conc. of main HPLC peak", "setting": "[2]; 4 hours, Table 28 trace, peak at Ret. Time 8.555", "result": 98.453, "unit": "%"}, {"measurement": "% Conc. of main HPLC peak", "setting": "[2]; 8 hours, Table 29 trace, peak at Ret. Time 9.359", "result": 99.107, "unit": "%"}, {"measurement": "% Conc. of main HPLC peak", "setting": "[2]; 8 hours, Table 30 trace, peak at Ret. Time 8.562", "result": 98.173, "unit": "%"}, {"measurement": "Site of accumulation in PET image", "setting": "[3]", "result": "accumulates in proximal tubules in the kidney"}, {"measurement": "% of ROI, Rgn 1 (origin, radiolabeled conjugate)", "setting": "[4]; 40 minutes", "result": 99.62, "unit": "%"}, {"measurement": "% of ROI, Rgn 2 (solvent front, free ^64Cu)", "setting": "[4]; 40 minutes", "result": 0.38, "unit": "%"}, {"measurement": "% of ROI, Rgn 1 (origin, radiolabeled conjugate)", "setting": "[4]; 2 hours", "result": 99.40, "unit": "%"}, {"measurement": "% of ROI, Rgn 2 (solvent front, free ^64Cu)", "setting": "[4]; 2 hours", "result": 0.60, "unit": "%"}, {"measurement": "% of ROI, Rgn 2 (solvent front, free ^64Cu)", "setting": "[4]; 4 hours", "result": 0.36, "unit": "%"}, {"measurement": "% of ROI, Rgn 1 (origin, radiolabeled conjugate)", "setting": "[4]; 8 hours", "result": 99.19, "unit": "%"}, {"measurement": "% of ROI, Rgn 2 (solvent front, free ^64Cu)", "setting": "[4]; 8 hours", "result": 0.81, "unit": "%"}]}]}
